From publication PMC3593967 (Molecular pharmaceutics, 2013)
Bridge positions count the residues as written; N and C are the ends. Square brackets hold non-standard residues; d marks the D form. Peptide text beside a SMILES is read from it. * marks the point of attachment. DOTA(p-xylylenediamine) = O=C(O)CN1CCN(CC(=O)O)CCN(CC(=O)NCc2ccc(CN*)cc2)CCN(CC(=O)O)CC1; DOTA = O=C(O)CN1CCN(CC(=O)O)CCN(CC(=O)*)CCN(CC(=O)O)CC1; Tyr(3-Cl) = N[C@@H](Cc1ccc(O)c(Cl)c1)C(=O)O; Hyp = O=C(O)[C@@H]1C[C@@H](O)CN1

Tests used:
arterial thrombus = assay: Biodistribution in rat model of carotid artery thrombosis; assay type: in vivo; details: 120 min post injection, ratio of %ID/g
[1] = as above; assay type: in vivo; details: male, Wistar, in vivo, iv, total radioactivity, Biodistribution

SMILES	thrombus uptake relative to blood (arterial thrombus)	tissue uptake at 2 h ([1]; blood)	tissue uptake at 2 h ([1]; bone)	tissue uptake at 2 h ([1]; brain)	tissue uptake at 2 h ([1]; clot)	tissue uptake at 2 h ([1]; heart)	tissue uptake at 2 h ([1]; intestine)	tissue uptake at 2 h ([1]; kidney)	tissue uptake at 2 h ([1]; liver)	tissue uptake at 2 h ([1]; lungs)	tissue uptake at 2 h ([1]; muscle)	tissue uptake at 2 h ([1]; spleen)
CC[C@H](C)[C@H](NC(=O)[C@H](Cc1ccc(O)cc1)NC(=O)[C@@H]1CSSC[C@H](NC(=O)[C@@H](CCC(=O)O)NC(=O)[C@H](Cc2ccc(O)cc2)NC(=O)CN2CCN(CC(=O)O)CCN(CC(=O)O)CCN(CC(=O)O)CC2)C(=O)N2C[C@H](O)C[C@H]2C(=O)N[C@@H](Cc2ccc(O)c(Cl)c2)C(=O)NCC(=O)N[C@@H](CC(C)C)C(=O)N1)C(=O)N[C@@H](CCC(N)=O)C(=O)NCc1ccc(CNC(=O)CN2CCN(CC(=O)O)CCN(CC(=O)O)CCN(CC(=O)O)CC2)cc1 [FBP1] ({DOTA}-Y[dE]C[Hyp][Tyr(3-Cl)]GLCYIQ-{DOTA(p-xylylenediamine)}; disulfide 3-8)	> 2.5 fold	–	–	–	–	–	–	–	–	–	–	–
CC[C@H](C)[C@H](NC(=O)[C@H](Cc1c[nH]cn1)NC(=O)[C@@H]1CSSC[C@H](NC(=O)[C@H](Cc2c[nH]cn2)NC(=O)[C@H](Cc2ccccc2)NC(=O)CN2CCN(CC(=O)O)CCN(CC(=O)O)CCN(CC(=O)O)CC2)C(=O)N2C[C@H](O)C[C@H]2C(=O)N[C@@H](Cc2ccc(O)c(Cl)c2)C(=O)N[C@@H](CC(=O)O)C(=O)N[C@@H](CC(C)C)C(=O)N1)C(=O)N[C@@H](CC(C)C)C(=O)NCc1ccc(CNC(=O)CN2CCN(CC(=O)O)CCN(CC(=O)O)CCN(CC(=O)O)CC2)cc1 [FBP2] ({DOTA}-FHC[Hyp][Tyr(3-Cl)]DLCHIL-{DOTA(p-xylylenediamine)}; disulfide 3-8)	> 2.5 fold	0.164 ± 0.016 %ID/g	0.043 ± 0.015 %ID/g	0.017 ± 0.004 %ID/g	0.445 ± 0.102 %ID/g	0.074 ± 0.011 %ID/g	0.278 ± 0.095 %ID/g	2.72 ± 0.848 %ID/g	0.617 ± 0.187 %ID/g	0.048 ± 0.01 %ID/g	0.012 ± 0.003 %ID/g	0.071 ± 0.016 %ID/g
CC[C@H](C)[C@H](NC(=O)[C@H](Cc1c[nH]c2ccccc12)NC(=O)[C@@H]1CSSC[C@H](NC(=O)[C@H](CCC(=O)O)NC(=O)[C@H](Cc2c[nH]c3ccccc23)NC(=O)CN2CCN(CC(=O)O)CCN(CC(=O)O)CCN(CC(=O)O)CC2)C(=O)N2C[C@H](O)C[C@H]2C(=O)N[C@@H](Cc2ccc(O)c(Cl)c2)C(=O)NCC(=O)N[C@@H](CC(C)C)C(=O)N1)C(=O)N[C@@H](CCC(N)=O)C(=O)NCc1ccc(CNC(=O)CN2CCN(CC(=O)O)CCN(CC(=O)O)CCN(CC(=O)O)CC2)cc1 [FBP3] ({DOTA}-WEC[Hyp][Tyr(3-Cl)]GLCWIQ-{DOTA(p-xylylenediamine)}; disulfide 3-8)	no difference	0.184 ± 0.026 %ID/g	0.041 ± 0.011 %ID/g	0.011 ± 0.003 %ID/g	0.183 ± 0.088 %ID/g	0.082 ± 0.01 %ID/g	0.184 ± 0.053 %ID/g	0.621 ± 0.186 %ID/g	1.46 ± 0.292 %ID/g	0.066 ± 0.008 %ID/g	0.009 ± 0.001 %ID/g	0.04 ± 0.006 %ID/g
